# Experimental data from paper PMC5603589 (2017).
# Molecular target: GST-AKT1 CA (85 kDa) (UniProt P31749 1-480)
# Assay: BLI
# Chain of GST-AKT1 CA (85 kDa) (P31749 whole entry): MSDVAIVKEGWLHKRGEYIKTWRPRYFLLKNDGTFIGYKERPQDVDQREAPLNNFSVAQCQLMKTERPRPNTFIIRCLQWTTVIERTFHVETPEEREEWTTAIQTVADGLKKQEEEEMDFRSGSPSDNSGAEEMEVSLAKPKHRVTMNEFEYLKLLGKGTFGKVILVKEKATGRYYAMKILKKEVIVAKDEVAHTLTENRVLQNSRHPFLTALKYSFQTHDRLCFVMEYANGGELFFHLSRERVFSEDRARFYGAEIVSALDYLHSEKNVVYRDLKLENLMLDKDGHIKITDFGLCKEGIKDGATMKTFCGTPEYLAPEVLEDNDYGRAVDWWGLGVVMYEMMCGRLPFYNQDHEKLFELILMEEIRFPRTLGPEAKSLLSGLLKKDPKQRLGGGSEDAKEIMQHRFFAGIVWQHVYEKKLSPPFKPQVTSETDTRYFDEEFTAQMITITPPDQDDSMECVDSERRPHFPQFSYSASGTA
binder,measurement,value
"GST-PALLD third IgC domain (40 kDa) (domain or fragment, labelled by biotin) PFFEMKLKHYKIFEGMPVTFTCRVAGNPKPKIYWFKDGKQISPKSDHYTIQRDLDGTCSLHTTASTLDDDGNYTIMAANPQGRIS",Kd,0.0772 nM
